In patent publication US20200155643:

Target: Recombinant human protein C inhibitor (PCI, SERPINA5) (UniProt P05154)
Sequence (P05154 20-406): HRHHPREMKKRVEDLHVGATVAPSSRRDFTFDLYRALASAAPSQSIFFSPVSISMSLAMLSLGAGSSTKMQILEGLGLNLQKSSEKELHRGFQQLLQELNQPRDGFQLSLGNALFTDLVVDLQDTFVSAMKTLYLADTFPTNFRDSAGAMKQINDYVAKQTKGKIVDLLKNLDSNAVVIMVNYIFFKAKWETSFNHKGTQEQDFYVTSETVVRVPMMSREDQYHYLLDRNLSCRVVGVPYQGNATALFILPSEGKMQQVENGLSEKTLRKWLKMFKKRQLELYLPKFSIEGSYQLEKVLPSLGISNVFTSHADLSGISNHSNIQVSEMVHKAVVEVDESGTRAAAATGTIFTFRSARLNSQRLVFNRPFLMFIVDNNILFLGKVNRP

| Substance | cleavage of PCI (anti-PCI immunoblot) |
| --- | --- |
| Recombinant human hepsin (R&D Systems 4776-SE-10) | resulted in the appearance of cleaved forms of PCI |
| Recombinant mouse testisin (R&D Systems 6820-SE-10) | PCI is a substrate for testisin ... testisin cleaves PCI at a second site |
